Measured values from patent US20230134571A1 (INTERNATIONAL AIDS VACCINE INITIATIVE, published 2023).
Residue numbers refer to the chain shown, from its start.

B1: ePGDM9 (antibody, V domains shown)
VH: QAQLVQSGPEVRKPGTSVKVSCKNPGNTLTTYDLHWVRQVPGQGLQWMGWISHEGDKKVIVERFKAKVTIDWDRSTNTAYLQLSGLTSEDTAVYYCAKGSKHRLRDYALYDEDGALNWAVDVDYLANLEFWGQGTAVTVSS
VL: DIVLTQSPLSLSVTPGESASISCKSSQSLIHGDRNNYLAWYVQKPGRSPQLLIDLASERASGVPDRFSGSGSRKDFTLKISRVETEDVGTYYCMQGRESPWTFGQGTKVDIK
B2: ePGDM5 (antibody, V domains shown)
VH: B1 VH
VL: B1 VL with I2F, S26D, Q27H, I30Q, S81D, T85A
B3: ePGDM13 (antibody, V domains shown)
VH: B1 VH
VL: B1 VL with Q27H, I30Q, I53L, R73E
B4: PGDM1400 (antibody, V domains shown)
VH: B1 VH with A2V, Q3H, V5T, N24A, T30K, Q39S, E89G, E112D, A126S
VL: B1 VL with I2F, L9H, Q27H, D54Y, E58S, R73D

Target: HIV Env, isolate REJO4541.67 (HIV)
Assay: cell-based or functional assay

Question: How did the “IC80 (µg/ml) with constrains” value turn out when B1 was run?
Answer: The value was 0.003 µg/mL.

Question: For B2, which “IC80 (µg/ml) with constrains” value is on record?
Answer: The value was 0.005 µg/mL.

Question: B3 was tested. Which “IC80 (µg/ml) with constrains” value did it give?
Answer: Its value is 0.008 µg/mL.

Question: For B4, which “IC80 (µg/ml) with constrains” value is on record?
Answer: Its value is 0.017 µg/mL.

Target: HIV Env, isolate RHPA4259.7 (HIV)
Assay: cell-based or functional assay

Question: How did the “IC80 (µg/ml) with constrains” value turn out when B1 was run?
Answer: The value was 0.578 µg/mL.

Question: Which “IC80 (µg/ml) with constrains” value does the source give for B2 here?
Answer: The value was 1.86 µg/mL.

Question: How did the “IC80 (µg/ml) with constrains” value turn out when B3 was run?
Answer: Its value is 1.43 µg/mL.

Question: B4 was tested. Which “IC80 (µg/ml) with constrains” value did it give?
Answer: Its value is 1.96 µg/mL.

Target: HIV Env, isolate TRJO4551.58 (HIV)
Assay: cell-based or functional assay

Question: B1 was tested. Which “IC80 (µg/ml) with constrains” value did it give?
Answer: The value was > 100 µg/mL.

Question: How did the “IC80 (µg/ml) with constrains” value turn out when B2 was run?
Answer: Its value is > 100 µg/mL.

Question: For B3, which “IC80 (µg/ml) with constrains” value is on record?
Answer: The value was > 100 µg/mL.

Question: B4 was tested. Which “IC80 (µg/ml) with constrains” value did it give?
Answer: The value was > 100 µg/mL.

Target: HIV Env, isolate TRO.11 (HIV)
Assay: cell-based or functional assay

Question: How did the “IC80 (µg/ml) with constrains” value turn out when B1 was run?
Answer: The value was 0.652 µg/mL.

Question: B2 was tested. Which “IC80 (µg/ml) with constrains” value did it give?
Answer: The value was 1.26 µg/mL.

Question: With B3 as the binder, how does the “IC80 (µg/ml) with constrains” value read?
Answer: The value was 1.41 µg/mL.

Question: Which “IC80 (µg/ml) with constrains” value does the source give for B4 here?
Answer: The value was 0.823 µg/mL.

Target: HIV Env, isolate 1394C9G1(Rev-) (HIV)
Assay: cell-based or functional assay

Question: Which “IC80 (µg/ml) with constrains” value does the source give for B1 here?
Answer: The value was 0.005 µg/mL.

Question: Which “IC80 (µg/ml) with constrains” value does the source give for B2 here?
Answer: The value was 0.009 µg/mL.

Question: For B3, which “IC80 (µg/ml) with constrains” value is on record?
Answer: Its value is 0.011 µg/mL.

Question: Which “IC80 (µg/ml) with constrains” value does the source give for B4 here?
Answer: Its value is 0.012 µg/mL.

Target: HIV Env, isolate 246FC1G (HIV)
Assay: cell-based or functional assay

Question: Which “IC80 (µg/ml) with constrains” value does the source give for B1 here?
Answer: The value was > 100 µg/mL.

Question: Which “IC80 (µg/ml) with constrains” value does the source give for B2 here?
Answer: Its value is > 100 µg/mL.

Question: With B3 as the binder, how does the “IC80 (µg/ml) with constrains” value read?
Answer: Its value is > 100 µg/mL.

Question: B4 was tested. Which “IC80 (µg/ml) with constrains” value did it give?
Answer: The value was > 100 µg/mL.

Target: HIV Env, isolate 249MB10 (HIV)
Assay: cell-based or functional assay

Question: B1 was tested. Which “IC80 (µg/ml) with constrains” value did it give?
Answer: The value was 0.028 µg/mL.

Question: How did the “IC80 (µg/ml) with constrains” value turn out when B2 was run?
Answer: Its value is 0.045 µg/mL.

Question: How did the “IC80 (µg/ml) with constrains” value turn out when B3 was run?
Answer: The value was 0.13 µg/mL.

Question: B4 was tested. Which “IC80 (µg/ml) with constrains” value did it give?
Answer: Its value is 0.085 µg/mL.

Target: HIV Env, isolate BF1266.431a (HIV)
Assay: cell-based or functional assay

Question: With B1 as the binder, how does the “IC80 (µg/ml) with constrains” value read?
Answer: Its value is 0.008 µg/mL.

Question: For B2, which “IC80 (µg/ml) with constrains” value is on record?
Answer: The value was 0.014 µg/mL.

Question: How did the “IC80 (µg/ml) with constrains” value turn out when B3 was run?
Answer: Its value is 0.016 µg/mL.

Question: How did the “IC80 (µg/ml) with constrains” value turn out when B4 was run?
Answer: The value was 0.024 µg/mL.

Target: HIV Env, isolate Ce704809221_1B3 (HIV)
Assay: cell-based or functional assay

Question: With B1 as the binder, how does the “IC80 (µg/ml) with constrains” value read?
Answer: Its value is 0.539 µg/mL.

Question: How did the “IC80 (µg/ml) with constrains” value turn out when B2 was run?
Answer: Its value is 0.749 µg/mL.

Question: Which “IC80 (µg/ml) with constrains” value does the source give for B3 here?
Answer: Its value is 1.36 µg/mL.

Question: How did the “IC80 (µg/ml) with constrains” value turn out when B4 was run?
Answer: The value was 1.28 µg/mL.

Target: HIV Env, isolate Du156.12 (HIV)
Assay: cell-based or functional assay

Question: B1 was tested. Which “IC80 (µg/ml) with constrains” value did it give?
Answer: The value was 0.016 µg/mL.

Question: With B2 as the binder, how does the “IC80 (µg/ml) with constrains” value read?
Answer: Its value is 0.026 µg/mL.

Question: B3 was tested. Which “IC80 (µg/ml) with constrains” value did it give?
Answer: Its value is 0.026 µg/mL.

Question: For B4, which “IC80 (µg/ml) with constrains” value is on record?
Answer: Its value is 0.025 µg/mL.

Target: HIV Env, isolate ZM135M.PL10a (HIV)
Assay: cell-based or functional assay

Question: How did the “IC80 (µg/ml) with constrains” value turn out when B1 was run?
Answer: The value was > 100 µg/mL.

Question: Which “IC80 (µg/ml) with constrains” value does the source give for B2 here?
Answer: Its value is > 100 µg/mL.

Question: With B3 as the binder, how does the “IC80 (µg/ml) with constrains” value read?
Answer: Its value is > 100 µg/mL.

Question: B4 was tested. Which “IC80 (µg/ml) with constrains” value did it give?
Answer: The value was > 100 µg/mL.

Target: HIV Env, isolate ZM197M.PB7 (HIV)
Assay: cell-based or functional assay

Question: How did the “IC80 (µg/ml) with constrains” value turn out when B1 was run?
Answer: The value was 0.092 µg/mL.

Question: With B2 as the binder, how does the “IC80 (µg/ml) with constrains” value read?
Answer: The value was 0.141 µg/mL.

Question: Which “IC80 (µg/ml) with constrains” value does the source give for B3 here?
Answer: The value was 0.24 µg/mL.

Question: B4 was tested. Which “IC80 (µg/ml) with constrains” value did it give?
Answer: Its value is 0.282 µg/mL.

Target: HIV Env, isolate T278-50 (HIV)
Assay: cell-based or functional assay

Question: Which “IC80 (µg/ml) with constrains” value does the source give for B1 here?
Answer: The value was 2.02 µg/mL.

Question: How did the “IC80 (µg/ml) with constrains” value turn out when B2 was run?
Answer: Its value is 4.23 µg/mL.

Question: How did the “IC80 (µg/ml) with constrains” value turn out when B3 was run?
Answer: Its value is 6.4 µg/mL.

Question: With B4 as the binder, how does the “IC80 (µg/ml) with constrains” value read?
Answer: Its value is 21.7 µg/mL.

Target: HIV Env, isolate 89-F1_2_25 (HIV)
Assay: cell-based or functional assay

Question: B1 was tested. Which “IC80 (µg/ml) with constrains” value did it give?
Answer: Its value is 0.004 µg/mL.

Question: For B2, which “IC80 (µg/ml) with constrains” value is on record?
Answer: Its value is 0.006 µg/mL.

Question: B3 was tested. Which “IC80 (µg/ml) with constrains” value did it give?
Answer: The value was 0.006 µg/mL.

Question: For B4, which “IC80 (µg/ml) with constrains” value is on record?
Answer: Its value is 0.013 µg/mL.

Target: HIV Env, isolate 231965.c01 (HIV)
Assay: cell-based or functional assay

Question: With B1 as the binder, how does the “IC80 (µg/ml) with constrains” value read?
Answer: The value was 0.037 µg/mL.

Question: Which “IC80 (µg/ml) with constrains” value does the source give for B2 here?
Answer: The value was 0.035 µg/mL.

Question: For B3, which “IC80 (µg/ml) with constrains” value is on record?
Answer: Its value is 0.058 µg/mL.

Question: How did the “IC80 (µg/ml) with constrains” value turn out when B4 was run?
Answer: Its value is 0.242 µg/mL.

Target: HIV Env, isolate 3016.v5.c45 (HIV)
Assay: cell-based or functional assay

Question: B1 was tested. Which “IC80 (µg/ml) with constrains” value did it give?
Answer: Its value is > 100 µg/mL.

Question: Which “IC80 (µg/ml) with constrains” value does the source give for B2 here?
Answer: The value was > 100 µg/mL.

Question: For B3, which “IC80 (µg/ml) with constrains” value is on record?
Answer: The value was > 100 µg/mL.

Question: B4 was tested. Which “IC80 (µg/ml) with constrains” value did it give?
Answer: Its value is > 100 µg/mL.

Target: HIV Env, isolate P0402_C2_11 (HIV)
Assay: cell-based or functional assay

Question: B1 was tested. Which “IC80 (µg/ml) with constrains” value did it give?
Answer: Its value is 0.003 µg/mL.

Question: B2 was tested. Which “IC80 (µg/ml) with constrains” value did it give?
Answer: Its value is 0.015 µg/mL.

Question: B3 was tested. Which “IC80 (µg/ml) with constrains” value did it give?
Answer: The value was 0.006 µg/mL.

Question: How did the “IC80 (µg/ml) with constrains” value turn out when B4 was run?
Answer: Its value is 0.027 µg/mL.

Target: HIV Env, isolate X1632_S2_B10 (HIV)
Assay: cell-based or functional assay

Question: With B1 as the binder, how does the “IC80 (µg/ml) with constrains” value read?
Answer: The value was 0.01 µg/mL.

Question: B2 was tested. Which “IC80 (µg/ml) with constrains” value did it give?
Answer: The value was 0.012 µg/mL.

Question: How did the “IC80 (µg/ml) with constrains” value turn out when B3 was run?
Answer: Its value is 0.013 µg/mL.

Question: For B4, which “IC80 (µg/ml) with constrains” value is on record?
Answer: The value was 0.135 µg/mL.

Target: HIV Env, isolate 62357_14_D3_4589 (HIV)
Assay: cell-based or functional assay

Question: With B1 as the binder, how does the “IC80 (µg/ml) with constrains” value read?
Answer: Its value is 38 µg/mL.

Question: B2 was tested. Which “IC80 (µg/ml) with constrains” value did it give?
Answer: The value was 39.9 µg/mL.

Question: How did the “IC80 (µg/ml) with constrains” value turn out when B3 was run?
Answer: Its value is 69.5 µg/mL.

Question: Which “IC80 (µg/ml) with constrains” value does the source give for B4 here?
Answer: Its value is > 100 µg/mL.
